Test results: publication PMC4604684, “Characterisation of the Cullin-3 mutation that causes a severe form of familial hypertension and hyperkalaemia” (EMBO Molecular Medicine, 2015)

Molecular target: T1, CUL3^WT-RBX1 complex, purified, tag cleaved (human, UniProt Q13618-1 1-768; P62877 1-108)
T1 construct: Cullin-3, human, wild type; RBX1, human, untagged; The pull-down sections call this protein only CUL3^WT; also called CUL3-RBX1; not shown: DAC, N-terminal, cleaved
Experiment: pull-down; purified GST-CAND1 or GST on glutathione-sepharose; incubated with purified CUL3^WT or CUL3^Δ403–459 at 4°C for 1 h; washed thrice; SDS-PAGE, Coomassie
Conditions: both partners purified

T1 sequence (Q13618 whole entry, chain 1 of 2): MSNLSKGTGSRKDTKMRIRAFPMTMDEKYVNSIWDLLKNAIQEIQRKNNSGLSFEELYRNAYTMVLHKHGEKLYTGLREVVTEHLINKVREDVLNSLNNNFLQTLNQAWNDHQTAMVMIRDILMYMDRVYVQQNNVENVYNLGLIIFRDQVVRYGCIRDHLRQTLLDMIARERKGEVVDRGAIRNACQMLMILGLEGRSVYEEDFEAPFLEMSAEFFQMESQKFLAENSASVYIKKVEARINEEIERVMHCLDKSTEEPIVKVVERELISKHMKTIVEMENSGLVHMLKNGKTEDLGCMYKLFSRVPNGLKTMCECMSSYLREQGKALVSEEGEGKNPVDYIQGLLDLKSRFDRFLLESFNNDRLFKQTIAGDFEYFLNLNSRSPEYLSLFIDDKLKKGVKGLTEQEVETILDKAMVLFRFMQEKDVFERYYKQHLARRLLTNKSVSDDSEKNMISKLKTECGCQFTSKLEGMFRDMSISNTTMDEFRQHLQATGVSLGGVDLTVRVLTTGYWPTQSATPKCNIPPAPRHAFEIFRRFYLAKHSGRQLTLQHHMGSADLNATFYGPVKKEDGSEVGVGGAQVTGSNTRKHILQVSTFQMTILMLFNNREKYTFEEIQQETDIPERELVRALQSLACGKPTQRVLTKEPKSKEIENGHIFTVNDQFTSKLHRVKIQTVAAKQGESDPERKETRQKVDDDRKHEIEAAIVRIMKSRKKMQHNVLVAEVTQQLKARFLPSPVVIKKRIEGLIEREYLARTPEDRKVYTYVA
T1 sequence (P62877 whole entry, chain 2 of 2): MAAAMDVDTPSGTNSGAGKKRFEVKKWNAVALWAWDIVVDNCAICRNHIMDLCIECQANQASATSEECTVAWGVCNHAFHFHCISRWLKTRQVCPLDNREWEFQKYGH

binding result: binds
B1: GST-CAND1 (natural protein, human, UniProt Q86VP6-1 1-1230, looked up)
chain: MASASYHISNLLEKMTSSDKDFRFMATNDLMTELQKDSIKLDDDSERKVVKMILKLLEDKNGEVQNLAVKCLGPLVSKVKEYQVETIVDTLCTNMLSDKEQLRDISSIGLKTVIGELPPASSGSALAANVCKKITGRLTSAIAKQEDVSVQLEALDIMADMLSRQGGLLVNFHPSILTCLLPQLTSPRLAVRKRTIIALGHLVMSCGNIVFVDLIEHLLSELSKNDSMSTTRTYIQCIAAISRQAGHRIGEYLEKIIPLVVKFCNVDDDELREYCIQAFESFVRRCPKEVYPHVSTIINICLKYLTYDPNYNYDDEDEDENAMDADGGDDDDQGSDDEYSDDDDMSWKVRRAAAKCLDAVVSTRHEMLPEFYKTVSPALISRFKEREENVKADVFHAYLSLLKQTRPVQSWLCDPDAMEQGETPLTMLQSQVPNIVKALHKQMKEKSVKTRQCCFNMLTELVNVLPGALTQHIPVLVPGIIFSLNDKSSSSNLKIDALSCLYVILCNHSPQVFHPHVQALVPPVVACVGDPFYKITSEALLVTQQLVKVIRPLDQPSSFDATPYIKDLFTCTIKRLKAADIDQEVKERAISCMGQIICNLGDNLGSDLPNTLQIFLERLKNEITRLTTVKALTLIAGSPLKIDLRPVLGEGVPILASFLRKNQRALKLGTLSALDILIKNYSDSLTAAMIDAVLDELPPLISESDMHVSQMAISFLTTLAKVYPSSLSKISGSILNELIGLVRSPLLQGGALSAMLDFFQALVVTGTNNLGYMDLLRMLTGPVYSQSTALTHKQSYYSIAKCVAALTRACPKEGPAVVGQFIQDVKNSRSTDSIRLLALLSLGEVGHHIDLSGQLELKSVILEAFSSPSEEVKSAASYALGSISVGNLPEYLPFVLQEITSQPKRQYLLLHSLKEIISSASVVGLKPYVENIWALLLKHCECAEEGTRNVVAECLGKLTLIDPETLLPRLKGYLISGSSYARSSVVTAVKFTISDHPQPIDPLLKNCIGDFLKTLEDPDLNVRRVALVTFNSAAHNKPSLIRDLLDTVLPHLYNETKVRKELIREVEMGPFKHTVDDGLDIRKAAFECMYTLLDSCLDRLDIFEFLNHVEDGLKDHYDIKMLTFLMLVRLSTLCPSAVLQRLDRLVEPLRATCTTKVKANSVKQEFEKQDELKRSAMRAVAALLTIPEAEKSPLMSEFQSQISSNPELAAIFESIQKDSSSTNLESMDTS
notes: CAND1, human, ORF amplified from an EST IMAGE clone and subcloned into pGEX6P-2; source: E. coli BL21, purified (glutathione resin, eluted with glutathione, dialysed); not shown: GST, N-terminal, kept
